Data: PMC11676163, “Comparison of Two Chelator Scaffolds as Basis for Cholecystokinin-2 Receptor Targeting Bimodal Imaging Probes” (Pharmaceuticals, 2024)
Several values for one entry are separate records, joined by “and”; a condition that tells them apart may be missing. Equal values may be shown once.

Columns and labels:
CCK2 receptor = molecular target: T1, CCK2 receptor (Homo sapiens, UniProt P32239); assay: Receptor-binding affinity, competition against [^177Lu]Lu-DOTA-MGS5 on A431-CCK2R cells; conditions: metal-free compounds, vs [^177Lu]Lu-DOTA-MGS5, 1 h RT
T1 construct: expressed in transfected cells; host or cells: A431 human squamous carcinoma cells (A431-CCK2R), provided by Dr. Luigi Aloj
T1 sequence (P32239 1-447): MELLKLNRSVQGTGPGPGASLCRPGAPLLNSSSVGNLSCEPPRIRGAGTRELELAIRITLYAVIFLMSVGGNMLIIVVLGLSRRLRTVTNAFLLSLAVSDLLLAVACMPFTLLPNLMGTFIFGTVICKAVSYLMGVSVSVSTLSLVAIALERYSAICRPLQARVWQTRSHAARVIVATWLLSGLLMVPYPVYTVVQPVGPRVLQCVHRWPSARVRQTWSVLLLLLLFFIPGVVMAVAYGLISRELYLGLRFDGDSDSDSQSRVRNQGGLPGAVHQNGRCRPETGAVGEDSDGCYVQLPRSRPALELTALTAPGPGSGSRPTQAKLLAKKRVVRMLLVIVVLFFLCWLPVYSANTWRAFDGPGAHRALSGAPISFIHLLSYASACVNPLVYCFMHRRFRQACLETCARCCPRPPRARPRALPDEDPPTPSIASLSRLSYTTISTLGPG
Procedure: A total of 5 µg of DOTA-MGS5 were radiolabelled with 20 µL of [^177Lu]LuCl3 solution (300–400 MBq; 90–95 GBq/µmol) and 30 µL of 0.4 M sodium acetate/0.24 M gentisic acid solution with pH 5. The labelling mixture was heated at 90 °C for 20 min. At the end, the solution was diluted to a concentration of 200 nM and stored in a freezer for further use. Binding assays were carried out in 96-well filter plates (Multi-ScreenHTS-FB, Merck Group, Darmstadt, Germany) pretreated with 10 mM TRIS/139 mM NaCl buffer at pH 7.4 (TRIS-buffer) (2 × 250 μL) before 400,000 A431-CCK2R cells per well were added in 20 mM HEPES buffer at pH 7.4 containing 10 mM MgCl2, 14 μM bacitracin, and 0.5% (w/v) bovine serum albumin (BSA) (binding assay buffer). Competition assays were performed two times in triplicate using increasing concentrations of competitors (0.001–1,000 nM) and a constant amount of radioligands (~30,000 cpm, 0.3 nM). After 1 h of incubation at room temperature (RT), the medium was removed by vacuum filtration and the filters were rapidly rinsed with ice-cold binding assay buffer (2 × 200 μL), removed, and counted in the γ-counter. Half-maximal inhibitory concentration (IC50) values were calculated following non-linear regression with Origin software (MicroCal Origin 6.1, Northampton, MA, USA).

physchem = assay type: physicochemical; conditions: buffer or solvent, pH 7.4
Procedure: For stability and protein binding studies, the labelling solutions were diluted with PBS or human serum to a concentration of 0.5 µM and incubated at 37 °C for 1 h, 2 h, and 4 h (n = 3). In the case of serum stability for each timepoint, 100 uL of the incubated solution was diluted 1:1 with ACN to make the proteins precipitate and the solution was centrifuged for 2 min at 14,000× g rpm. A total of 100 uL of the supernatant was then diluted 1:1 with water and analyzed by radio-HPLC. For stability in PBS, 100 uL of the incubated solution was diluted 1:1 with water and analyzed by radio-HPLC for every timepoint.

A431-mock cells = assay: Cell uptake studies on A431-mock cells; assay type: cell-based, human; conditions: 0.5 nM, 1 h, 37 °C
Description: (§1) The human squamous carcinoma cell line A431 transfected with human CCK2R (A431-CCK2R) and with the empty vector alone (A431-mock) were originally provided by Dr. Luigi Aloj (Nuclear Medicine Unit, Istituto Nazionale per lo Studio e la Cura dei Tumori “Fondazione Giovanni Pascale”-IRCCS, Naples, Italy). All cell culture media and reagents were purchased from Gibco, Invitrogen (Thermo Fisher Scientific, Vienna, Austria), or Sigma-Aldrich (Darmstadt, Germany) Corporation. Dulbecco's Modified Eagle's medium (DMEM) supplemented with 10% (v/v) fetal bovine serum, FBS (10270, Invitrogen, Thermo Fisher Scientific, Waltham, MA, USA), and 1% (v/v) penicillin-streptomycin-glutamine, PSG (10378, Gibco, Thermo Fisher Scientific, Waltham, MA, USA), was used for cell culture. The cells were grown at 37 °C in a humidified atmosphere with 5% carbon dioxide and were passaged 3 times per week using a 2.5% trypsin-EDTA solution. The cell internalization of the radiolabelled compounds was measured on A431-CCK2R and A431-mock cells. A total of 1.0 × 10^6 cells per well were seeded in 6-well culture plates (Greiner Cellstar, Sigma-Aldrich […] GmbH, Vienna, Austria) and grown for 48 h. On the day of the experiment, each well was washed twice with internalization medium (culturing medium supplemented with 1% (v/v) FBS) and then incubated with 0.5 nM of a radioactive compound for 1 h at 37 °C. After the incubation, the medium was removed and the cells rinsed with 2 × 1 mL of PBS/0.5% (w/v) bovine serum albumin (BSA). Thereafter, they were washed twice with 1 mL of 50 mM glycine buffer (pH 2.8) with 0.1 M NaCl to remove the membrane-bound radiocompound. Finally, the cells were lysed with 2 × 1 mL of 1 M NaOH to determine the internalized radioligand. All fractions were measured in the γ-counter and the percentage of internalized and membrane-bound radiocompounds in relation to the total radioactivity added to the cells was reported.

in vivo [1] = conditions: BALB/c, mouse, total radioactivity
Procedure: For the ex vivo biodistribution study on healthy BALB/c mice, 3 animals per group were injected with 0.14 nmol of radiotracer (1.5 MBq) and then sacrificed after 1, 2, and 4 h. The organs of interest were extracted, weighed, and measured in the γ-counter. Results were expressed as percentages of injected dose per gram tissue (% ID/g).

in vivo [2] = conditions: athymic BALB/c nude, mouse, total radioactivity
Procedure: (§2) For the induction of tumour xenografts, 2 × 10^6 of A431-CCK2R or A431-mock cells in 200 μL appropriate medium and Matrigel (1:1) were subcutaneously injected in the right and left flank of each mouse (athymic BALB/c nude), respectively. The tumours were allowed to grow until they had reached a volume of 0.3 to 0.6 cm^3. To evaluate ex vivo biodistribution on tumour models, 3 mouse xenografts were injected with 0.05 nmol of radiotracer (1 MBq) and then sacrificed after 2 h. For the comparative imaging study (PET/CT and in vivo fluorescence imaging), 2 xenograft-bearing mice were injected with 0.3 nmol (6 MBq) of radiotracer. Static PET/CT images of the anesthetized animals in prone position were acquired with a Mediso NanoScan PET/CT small-animal imaging system (Mediso Medical Imaging Systems, Budapest, Hungary) at 1, 2, and 3 h p.i. Image reconstruction was performed via Mediso Tera-Tomo 3D PET iterative reconstruction (Mediso Medical Imaging Systems, Budapest, Hungary). The images were visualized, processed, and quantified in Mediso InterView FUSION (Mediso Medical Imaging Systems, Budapest, Hungary). Quantitative analyses were performed on images of 3 mouse xenografts per compound. The images were normalized to injected activity and animal weight. The results were expressed as percentages of injected dose per gram tissue (% ID/g).

[3] = tested on: A431-CCK2R / A431-mock xenografts; assay: in vivo; conditions: mouse
Procedure: as §2

[4] = Distribution coefficient (LogD pH7.4), octan-1-ol/PBS; assay type: physicochemical; conditions: octan-1-ol/PBS pH 7.4, n = 6
Procedure: For lipophilicity determination, [^68Ga]Ga-CyTMG and [^68Ga]Ga-CyFMG labelling solutions were diluted with phosphate-buffered saline (PBS, pH7.4) to a concentration of 0.1 µM. A total of 300 µL of this solution was added to an Eppendorf tube containing 300 µL of octan-1-ol. The mixture was shaken at 1400 rpm and at RT for 15 min and centrifuged at 4500× g rpm for 2 min for phase separation. Afterwards, 100 µL of the organic phase and of the aqueous phase were taken out and the activities of the aliquots were quantified in a γ-counter (n = 6). The LogD values were calculated with the following formula:(1) LogDpH7.4=log10  CPMoctanol phase/CPM PBS phase

[5] = tested on: A431-CCK2R / A431-mock xenografts; assay type: in vivo, mouse; conditions: for Time after injection from which cancerous tissue could be well delineated by fluorescence imaging: A431-CCK2R xenografts, 0.3 nmol; for Persistence of fluorescence signal in the kidneys: mouse, in vivo
Procedure: as §2
Near-infrared in vivo fluorescence imaging was conducted with an in vivo MS FX PRO small-animal imaging system (Bruker Biospin Corporation, Woodbridge, CT, USA) and image analysis was performed with Bruker MI SE software v. 7.1.1.20220 (Bruker Biospin Corporation, Woodbridge, CT, USA). The mice were positioned in the system in supine position and scanned at various time intervals up to 72 h p.i. by using an appropriate filter set (excitation = 650 nm and emission = 700 nm) and identical illumination settings (acquisition time = 30 s, f-stop = 2.8, field of view = 100 mm, and binning = 4 × 4). The fluorescence emission was reported as photons/s/mm^2.

A431-CCK2R cells = assay: Cell uptake studies on A431-CCK2R cells; assay type: cell-based, human; conditions: 0.5 nM, 1 h, 37 °C
Description: as §1

[6] = Accumulation of radioactivity in A431-CCK2R xenografts
[7] = Accumulation of radioactivity in A431-mock tumours

IC50 (CCK2 receptor) [nM]	SMILES	remaining at 1 h, 0.5 µM (physchem) [%]	remaining at 2 h, 0.5 µM (physchem) [%]	remaining at 4 h, 0.5 µM (physchem) [%]	Internalized fraction, % of total activity (A431-mock cells) [%]	Membrane bound, % of total activity (A431-mock cells) [%]	tissue uptake at 1 h (in vivo [1]) [%ID/g]	tissue uptake at 2 h (in vivo [1]) [%ID/g]	tissue uptake at 4 h (in vivo [1]) [%ID/g]	tissue uptake at 2 h (in vivo [2]; 0.05 nmol, Kidney uptake) [%ID/g]	tissue uptake at 2 h (in vivo [2]; [6]) [%ID/g]	tissue uptake at 2 h (in vivo [2]; [7]) [%ID/g]	Ratio of CCK2R-positive tumours and A431-mock xenografts [3]	LogDpH7.4 ± SD [4]	Time after injection from which cancerous tissue could be well delineated by fluorescence imaging [5] [h]	Persistence of fluorescence signal in the kidneys [5]	Internalized fraction, % of total activity (A431-CCK2R cells)	Membrane bound, % of total activity (A431-CCK2R cells) [%]
0.24 ± 0.16	CCCC[C@@H](C(=O)N[C@@H](CC(=O)O)C(=O)N[C@@H](Cc1cccc2ccccc12)C(N)=O)N(C)C(=O)[C@H](Cc1c[nH]c2ccccc12)NC(=O)CCOCCOCCOCCOCCn1cc(CNC(=O)CCP(=O)(O)CN2CCN(CP(=O)(O)CCC(=O)NCc3cn(CCCNC(=O)CCCCC[N+]4=C(C=CC=CC=C5N(C)c6ccc7c(S(=O)(=O)O)cc(S(=O)(=O)O)cc7c6C5(C)C)C(C)(C)c5c4ccc4c(S(=O)(=O)O)cc(S(=O)(=O)O)cc54)nn3)CCN(CP(=O)(O)CCC(=O)NCc3cn(CCOCCOCCOCCOCCC(=O)N[C@@H](Cc4c[nH]c5ccccc45)C(=O)N(C)[C@@H](CCCC)C(=O)N[C@@H](CC(=O)O)C(=O)N[C@@H](Cc4cccc5ccccc45)C(N)=O)nn3)CC2)nn1 (single isomer, unassigned) [CyTMG]																	
	CCCC[C@@H](C(=O)N[C@@H](CC(=O)O)C(=O)N[C@@H](Cc1cccc2ccccc12)C(N)=O)N(C)C(=O)[C@H](Cc1c[nH]c2ccccc12)NC(=O)CCOCCOCCOCCOCCn1cc(CNC(=O)CCP(=O)(O)CN2CCN(CP(=O)(O)CCC(=O)NCc3cn(CCCNC(=O)CCCCC[N+]4=C(C=CC=CC=C5N(C)c6ccc7c(S(=O)(=O)O)cc(S(=O)(=O)O)cc7c6C5(C)C)C(C)(C)c5c4ccc4c(S(=O)(=O)O)cc(S(=O)(=O)O)cc54)nn3)CCN(CP(=O)(O)CCC(=O)NCc3cn(CCOCCOCCOCCOCCC(=O)N[C@@H](Cc4c[nH]c5ccccc45)C(=O)N(C)[C@@H](CCCC)C(=O)N[C@@H](CC(=O)O)C(=O)N[C@@H](Cc4cccc5ccccc45)C(N)=O)nn3)CC2)nn1 (single isomer, unassigned) [[^68Ga]Ga-CyTMG, metal not drawn]	97.98 ± 0.2	97.56 ± 0.09	96.7 ± 1.15	0.2	0.5	75.8 ± 3.88	124 ± 6.46	173 ± 13	119 ± 9.12	6.47 ± 1.47	2.46 ± 0.4	2.63	−1.78 ± 0.16	≥ 1	up to 72 h	10.59 ± 0.40% and 10.6%	0.8
	CCCC[C@@H](C(=O)N[C@@H](CC(=O)O)C(=O)N[C@@H](Cc1cccc2ccccc12)C(N)=O)N(C)C(=O)[C@H](Cc1c[nH]c2ccccc12)NC(=O)CCOCCOCCOCCOCCn1cc(CCC(=O)N[C@H]2CCCN(O)C(=O)/C=C(/C)CCOC(=O)[C@@H](NC(=O)CCc3cn(CCOCCOCCOCCOCCC(=O)N[C@@H](Cc4c[nH]c5ccccc45)C(=O)N(C)[C@@H](CCCC)C(=O)N[C@@H](CC(=O)O)C(=O)N[C@@H](Cc4cccc5ccccc45)C(N)=O)nn3)CCCN(O)C(=O)/C=C(/C)CCOC(=O)[C@@H](NC(=O)CCc3cn(CCCNC(=O)CCCCC[N+]4=C(/C=C/C=C/C=C5/N(C)c6ccc7c(S(=O)(=O)O)cc(S(=O)(=O)[O-])cc7c6C5(C)C)C(C)(C)c5c4ccc4c(S(=O)(=O)O)cc(S(=O)(=O)O)cc54)nn3)CCCN(O)C(=O)/C=C(/C)CCOC2=O)nn1 [[^68Ga]Ga-CyFMG, metal not drawn]	99.1 ± 1.07	98.57 ± 0.47	99.3 ± 0.71	1.3	0.7	45.9 ± 3.03	59.3 ± 5.04	74.3 ± 11.7	50.7 ± 8.42	4.02 ± 1.64	1.02 ± 0.13	3.94	−1.53 ± 0.10	≥ 3	visibly declined from 24 h to disappear completely at 72 h after injection	24.48 ± 1.33% and 24.5%	0.9
